These are literature values, as cited in paper PMC3968163.

The target in the series is p53 TAD (Homo sapiens) (UniProt P04637). As to the kind of experiment: ITC.
Sequence of p53 TAD (Homo sapiens) (P04637 20-73): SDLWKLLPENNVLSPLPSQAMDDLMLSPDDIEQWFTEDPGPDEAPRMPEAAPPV

Sequence of Tfb1 PH (P32776 1-115): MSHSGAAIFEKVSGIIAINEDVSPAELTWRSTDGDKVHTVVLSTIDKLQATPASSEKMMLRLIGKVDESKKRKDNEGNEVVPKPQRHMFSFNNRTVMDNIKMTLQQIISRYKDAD

As for Tfb1 PH (from UniProt P32776), the Kd was 400 nM.
